Measured values taken from publication PMC8378251, “Biochemical and Structural Characterisation of a Novel D-Lyxose Isomerase From the Hyperthermophilic Archaeon Thermofilum sp” (Frontiers in Bioengineering and Biotechnology, 2021).

Target: the molecule itself
Test: SEC; calibrated Superdex 200 pg HiLoad 16/600, 25 mM Tris-HCl pH 8.0, 150 mM NaCl, 1.0 ml/min; apparent molecular mass ~46 kDa

B1: D-lyxose isomerase from Thermofilum sp. (TsLI) (enzyme, Thermofilum sp. ex4484_79)
chain: MLTKELVKEAREKAIRMLEKACIAITDEEKEKIEVTDFGLGVLYTFGLEILVYVNNERYCAKELVMFPRQICPEHRHPPIGSYLGKQETFRCRWGEVYLYVPGTPTPNPRARIPEEKKRYFTVWHEIVLRPGEQYTIPPNTLHWFQAGDEGAIVSEFSSQSIDEKDIFTDPNVKRIPEIV
notes: locus tag B6U94_07925; synthetic gene cloned into pET19b; subunit about 23 kDa; Homodimer; in the crystal the two monomers are joined by a disulfide bond between C22 of each subunit; No removal of the His tag is described; also called T. sp; LI; source: E. coli Rosetta (DE3) pLysS, purified (heat precipitation at 75°C, Ni-NTA, SEC)
Question: With B1 as the protein, how does the “stoichiometry N” value read?
Answer: 2
